IntAct's records for PubMed 19074278

B1: Calcium and calcium/calmodulin-dependent serine/threonine-protein kinase (Lotus japonicus), A0AAR7 (parent)
chain: MGYDQTRKLSDEYEISEILGRGGFSVVRKGTKKSGNEKTQVAIKTLRRLGSSPSGTGGGQKSTATVMGFPSLRQVSVSDALLTNEILVMRRIVENVSPHPNVIDLYDVCEDSNGVHLVLELCSGGELFDRIVAQDKYAETEAAAVVRQIAAGLEAVHKADIVHRDLKPENCLFLDSRKDSPLKIMDFGLSSVEEFTDPVVGLFGSIDYVSPEALSQGKITAKSDMWSLGVILYILLSGYPPFIAQNNRQKQQMIINGNFSFYEKTWKGITQSAKQLISSLLTVDPSKRPSAQELLSHPWVRGDKAKDEQMDPEIVSRLQSFNARRKLRAAAIASVWSSTIFLRTKKLRSLVGTYDLKEEEIESLRIHFKKICGNGDNATLSEFVEVLKAMKMPSLIPLAPRIFDLFDNNRDGTIDMREILCGFSSLKNSKGDDALRLCFQMYDTDRSGCITKEEVASMLCALPEECLPADITEPGKLDEIFDLMDANSDGKVTFEEFKAAMQRDSSLQDMLLSSLRPS
partner: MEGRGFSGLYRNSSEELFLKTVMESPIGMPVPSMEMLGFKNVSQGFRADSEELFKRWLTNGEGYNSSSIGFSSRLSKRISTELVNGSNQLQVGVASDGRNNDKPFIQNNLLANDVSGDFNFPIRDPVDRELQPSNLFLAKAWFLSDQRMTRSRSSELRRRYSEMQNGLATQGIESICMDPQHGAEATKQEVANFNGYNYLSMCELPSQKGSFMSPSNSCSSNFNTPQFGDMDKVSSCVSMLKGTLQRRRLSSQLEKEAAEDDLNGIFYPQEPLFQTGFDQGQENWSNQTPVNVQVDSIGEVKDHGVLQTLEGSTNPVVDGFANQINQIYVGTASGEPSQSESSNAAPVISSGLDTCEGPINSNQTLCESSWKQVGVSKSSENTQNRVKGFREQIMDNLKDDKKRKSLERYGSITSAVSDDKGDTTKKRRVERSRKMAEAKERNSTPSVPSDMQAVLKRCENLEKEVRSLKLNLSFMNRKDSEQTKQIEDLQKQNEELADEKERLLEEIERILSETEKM

Variants of: B1
Conditions: with cclop_lotja CYCLOPS
MGYDQTRKLSDEYEISEILGRGGFSVVRKGTKKSGNEKTQVAIATLRRLGSSPSGTGGGQKSTATVMGFPSLRQVSVSDALLTNEILVMRRIVENVSPHPNVIDLYDVCEDSNGVHLVLELCSGGELFDRIVAQDKYAETEAAAVVRQIAAGLEAVHKADIVHRDLKPENCLFLDSRKDSPLKIMDFGLSSVEEFTDPVVGLFGSIDYVSPEALSQGKITAKSDMWSLGVILYILLSGYPPFIAQNNRQKQQMIINGNFSFYEKTWKGITQSAKQLISSLLTVDPSKRPSAQELLSHPWVRGDKAKDEQMDPEIVSRLQSFNARRKLRAAAIASVWSSTIFLRTKKLRSLVGTYDLKEEEIESLRIHFKKICGNGDNATLSEFVEVLKAMKMPSLIPLAPRIFDLFDNNRDGTIDMREILCGFSSLKNSKGDDALRLCFQMYDTDRSGCITKEEVASMLCALPEECLPADITEPGKLDEIFDLMDANSDGKVTFEEFKAAMQRDSSLQDMLLSSLRPS [K44A] was tested, and the “effect of a mutation on the interaction” value was “disrupting interaction”.
MGYDQTRKLSDEYEISEILGRGGFSVVRKGTKKSGNEKTQVAIATLRRLGSSPSGTGGGQKSTATVMGFPSLRQVSVSDALLTNEILVMRRIVENVSPHPNVIDLYDVCEDSNGVHLVLELCSGGELFDRIVAQDKYAETEAAAVVRQIAAGLEAVHKADIVHRDLKPENCLFLDSRKDSPLKIMDFGLSSVEEFTDPVVGLFGSIDYVSPEALSQGKITAKSDMWSLGVILYILLSGYPPFIAQNNRQKQQMIINGNFSFYEKIWKGITQSAKQLISSLLTVDPSKRPSAQELLSHPWVRGDKAKDEQMDPEIVSRLQSFNARRKLRAAAIASVWSSTIFLRTKKLRSLVGTYDLKEEEIESLRIHFKKICGNGDNATLSEFVEVLKAMKMPSLIPLAPRIFDLFDNNRDGTIDMREILCGFSSLKNSKGDDALRLCFQMYDTDRSGCITKEEVASMLCALPEECLPADITEPGKLDEIFDLMDANSDGKVTFEEFKAAMQRDSSLQDMLLSSLRPS [K44A;T265I] was tested, and the “effect of a mutation on the interaction” value was “disrupting interaction”.
In the case of MGYDQTRKLSDEYEISEILGRGGFSVVRKETKKSGNEKTQVAIKTLRRLGSSPSGTGGGQKSTATVMGFPSLRQVSVSDALLTNEILVMRRIVENVSPHPNVIDLYDVCEDSNGVHLVLELCSGGELFDRIVAQDKYAETEAAAVVRQIAAGLEAVHKADIVHRDLKPENCLFLDSRKDSPLKIMDFGLSSVEEFTDPVVGLFGSIDYVSPEALSQGKITAKSDMWSLGVILYILLSGYPPFIAQNNRQKQQMIINGNFSFYEKTWKGITQSAKQLISSLLTVDPSKRPSAQELLSHPWVRGDKAKDEQMDPEIVSRLQSFNARRKLRAAAIASVWSSTIFLRTKKLRSLVGTYDLKEEEIESLRIHFKKICGNGDNATLSEFVEVLKAMKMPSLIPLAPRIFDLFDNNRDGTIDMREILCGFSSLKNSKGDDALRLCFQMYDTDRSGCITKEEVASMLCALPEECLPADITEPGKLDEIFDLMDANSDGKVTFEEFKAAMQRDSSLQDMLLSSLRPS [G30E], the “effect of a mutation on the interaction” value is reported as “disrupting interaction”.
